Experimental data reported in patent US20110053163A1, “Biomarker” (BIOVATOR TECHNOLOGIES AB, priority 2007, published 2011).

B1: Der p 1: allergenic protein tested for IL-10 induction (protein, UniProt P08176 99-320, looked up)
Peptidase 1: TNACSINGNAPAEIDLRQMRTVTPIRMQGGCGSCWAFSGVAATESAYLAYRNQSLDLAEQELVDCASQHGCHGDTIPRGIEYIQHNGVVQESYYRYVAREQSCRRPNAQRFGISNYCQIYPPNVNKIREALAQTHSAIAVIIGIKDLDAFRHYDGRTIIQRDNGYQPNYHAVNIVGYSNAQGVDYWIVRNSWDTNWGDNGYGYFAANIDLMMIEEYPYVVIL
B2: Gal d 3: native allergen component from Phadia (Conalbumin, Egg, white) (protein, UniProt P02789 20-705, looked up)
Ovotransferrin: APPKSVIRWCTISSPEEKKCNNLRDLTQQERISLTCVQKATYLDCIKAIANNEADAISLDGGQAFEAGLAPYKLKPIAAEVYEHTEGSTTSYYAVAVVKKGTEFTVNDLQGKTSCHTGLGRSAGWNIPIGTLLHRGAIEWEGIESGSVEQAVAKFFSASCVPGATIEQKLCRQCKGDPKTKCARNAPYSGYSGAFHCLKDGKGDVAFVKHTTVNENAPDQKDEYELLCLDGSRQPVDNYKTCNWARVAAHAVVARDDNKVEDIWSFLSKAQSDFGVDTKSDFHLFGPPGKKDPVLKDLLFKDSAIMLKRVPSLMDSQLYLGFEYYSAIQSMRKDQLTPSPRENRIQWCAVGKDEKSKCDRWSVVSNGDVECTVVDETKDCIIKIMKGEADAVALDGGLVYTAGVCGLVPVMAERYDDESQCSKTDERPASYFAVAVARKDSNVNWNNLKGKKSCHTAVGRTAGWVIPMGLIHNRTGTCNFDEYFSEGCAPGSPPNSRLCQLCQGSGGIPPEKCVASSHEKYFGYTGALRCLVEKGDVAFIQHSTVEENTGGKNKADWAKNLQMDDFELLCTDGRRANVMDYRECNLAEVPTHAVVVRPEKANKIRDLLERQEKRFGVNGSEKSKFMMFESQNKDLLFKDLTKCLFKVREGTTYKEFLGDKFYTVISSLKTCNPSDILQMCSFLEGK
B3: Gal d 2: native allergen component from Phadia (Ovalbumin, Egg white) (protein, UniProt P01012 2-386, looked up)
Ovalbumin: GSIGAASMEFCFDVFKELKVHHANENIFYCPIAIMSALAMVYLGAKDSTRTQINKVVRFDKLPGFGDSIEAQCGTSVNVHSSLRDILNQITKPNDVYSFSLASRLYAEERYPILPEYLQCVKELYRGGLEPINFQTAADQARELINSWVESQTNGIIRNVLQPSSVDSQTAMVLVNAIVFKGLWEKAFKDEDTQAMPFRVTEQESKPVQMMYQIGLFRVASMASEKMKILELPFASGTMSMLVLLPDEVSGLEQLESIINFEKLTEWTSSNVMEERKIKVYLPRMKMEEKYNLTSVLMAMGITDVFSSSANLSGISSAESLKISQAVHAAHAEINEAGREVVGSAEAGVDAASVSEEFRADHPFLFCIKHIATNAVLFFGRCVSP
B4: Alt a 1: native allergen component from Phadia (Alternaria) (protein, UniProt P79085 19-157, looked up)
Major allergen Alt a 1: APLESRQDTASCPVTTEGDYVWKISEFYGRKPEGTYYNSLGFNIKATNGGTLDFTCSAQADKLEDHKWYSCGENSFMDFSFDSDRSGLLLKQKVSDDITYVATATLPNYCRAGGNGPKDFVCQGVADAYITLVTLPKSS

Tests used:
MM6-cells = assay: CPA: IL-10 levels of stimulated MM6 cells, ELISA; assay type: cell-based, human; conditions: 25-200 μg/ml; 48 hours; with IFN-γ 100 U/ml
From the text: (§1) The instructions of the manufacturers were followed. All these tests are enzyme immunoassays (EIA:s). The principle is that microtiter plate wells are labelled with a cytokine specific capture antibody. If cytokine is present in the samples added to the wells it will be captured to the bottom of the well. […] The reaction is thereafter measured as colour developed after addition of a substrate for the enzyme. The values for the test wells are compared with a standard curve obtained by adding a series of known amounts of cytokine. The values obtained for control wells with no substance added are used as background values for cytokine levels.
(§2) The myelomonocytic cell line MonoMac-6 (obtained from DSMZ, accession number ACC 124, Prof. H. W. L. Ziegler-Heitbrock, Inst. For Immunology, University of Munich, Munich) was cultured in cell culture flasks (Corning). Cells were cultured in RPMI 1640 medium (Gibco BRL), containing 20 mM HEPES and L-glutamine and supplemented with 10% heat-inactivated foetal bovine serum (Gibco BRL), penicillin (100 U/mL; Sigma-Aldrich), streptomycin (100 μg/mL; Sigma-Aldrich), sodium pyruvate (1.0 mM;Gibco BRL), human insulin (9 μg/mL; Gibco BRL) and non-essential amino acids (Gibco BRL) or cultured in Panserin 411 (Pan Biotech) supplemented with penicillin (100 U/mL), streptomycin (100 μg/mL).
The cells were split approximately 1:3 the day before stimulation. The stimulation procedure was performed in three steps. The first step was pre-dilution of test substances, to double the final concentration, in cell culture medium. […] The number of cells was then determined by trypan blue exclusion and the cells were diluted to twice the final test concentration (2×10^6 cells/mL) if not otherwise indicated and 100 μl of cell suspension was added per well in 96 well tissue culture plates (Corning). […] The cell suspension was transferred to new cell culture plates and stored at −20° C. until analyzed. Thereafter the cell suspension was analyzed for presence of neopterin and IL-10 by ELISA (IBL-Hamburg) following the manufacturers instructions.

MonoMac-6 cells = assay: Cytokine Profile Assay (CPA): neopterin production by stimulated MonoMac-6 cells, ELISA; assay type: cell-based, human; conditions: with IFN-γ 100 U/ml
From the text: as §1, §2
The cells were split approximately 1:3 the day before stimulation. The stimulation procedure was performed in three steps. The first step was pre-dilution of test substances, to double the final concentration, in cell culture medium. Furthermore, Interferon-γ (IFN-γ) (100 U, PreproTech) was added in the cell culture media for 24 or 48 hours during stimulation of cells with test substances. The number of cells was then determined by trypan blue exclusion and the cells were diluted to twice the final test concentration (2×10^6 cells/mL) if not otherwise indicated and 100 μl of cell suspension was added per well in 96 well tissue culture plates (Corning). Finally, a 100 μl of pre-diluted test substance (triplicate cultures) was added to the tissue culture plates. […] The stimulated cells were cultured at 37° C., 5% CO2, for 24 or 48 hours. The cell suspension was transferred to new cell culture plates and stored at −20° C. until analyzed. Thereafter the cell suspension was analyzed for presence of neopterin and IL-10 by ELISA (IBL-Hamburg) following the manufacturers instructions.

[1] = serum free Panserin media, 48 hrs

Molecule | IL-10 levels (in words) (MM6-cells) | neopterin response (in words) (MonoMac-6 cells; [1]) | neopterin response (in words) (MonoMac-6 cells; proteins, RPMI+10% FCS, 24 hrs, over the tested concentrations) | neopterin response (in words) (MonoMac-6 cells; serum free Panserin media, 24 hrs)
B1 | induced increased IL-10 levels in a dose dependent manner |  |  | 
B2 |  | increased in a dose dependent manner |  | 
B3 | induced increased IL-10 levels in a dose dependent manner | increased in a dose dependent manner |  | 
B4 | induced increased IL-10 levels in a dose dependent manner | increased in a dose dependent manner | increased in a dose dependent manner | increased in a dose dependent manner
